Laboratory results published in article PMC2156174.

Molecular target: endogenous Tom40 (N. crassa (endogenous in isolated mitochondria)) (UniProt P24391)
Experiment: cross-linking

Substance: endogenous Tom40 (from UniProt P24391 1-349) (natural protein)
- stoichiometry N: 2
